The values below come from US20130189725A1, “HUMAN IN VITRO MODEL OF THE BLOOD CER[…] BARRIER” (RUPRECHT-KARLS-UNIVERSITAT HEIDELBERG, priority 2010, published 2013).

The test system of this data set is HIBCPP monolayers. The data set is described as follows: Paracellular permeability: FITC-inulin flux through HIBCPP layers on transwell filters. The format is in vitro ADME, human. The conditions noted are these: standard and inverted transwell filter system. The method, then:
HIBCPP were cultured in a 1:1 mixture of DMEM medium and HAM's F12 medium, supplemented with 4 mM L-Glutamine, 5 μg/ml insulin, penicillin (100 U/ml) and streptomycin (100 μg/ml), and 15% (v/v) heat inactivated fetal calf serum (FCS) [HIBCPP-medium with 15% (v/v) FCS]. Since HIBCPP have been described to change doubling time with increasing passages, only cells between passage 33 and 37 were used. For filter-based assays, the amounts of cells indicated in the respective experiments were seeded on the filter membrane of transwell filters (pore diameter 3.0 μm, pore density 2.0×10^6 pores per cm^2, 0.33 cm^2; Greiner Bio-one, Frickenhausen, Germany). For the standard transwell filter system, cells were seeded into the upper well of the transwell filter. Subsequently, cells were washed once each of the following two days. Medium was added to the lower well not before day two after seeding. […]
Paracellular permeability of HIBCPP monolayers was determined by measuring the passage of a FITC-inulin (Sigma, Deisenhofen, Germany) tracer solution (100 μg/ml) from the apical to the basolateral compartment of transwell filters carrying the monolayers in a Tecan Infinite M200 Multiwell reader (Tecan, Switzerland) employing Magellan V6.6 software.

As for FITC-inulin, where the note is “after day 0, simultaneously with development of a high TEER, 15%, 1% or no serum”, the “permeability for FITC-inulin” value is on record as “below 1%”. This substance had an FITC-inulin flux (up to day 0 when TEER values are still low, tracer 100 μg/ml) of at least 3%.
